From US20220119464A1 come the findings set out here.

The assay has as its target biotinylated L-form of SARS-CoV-2 HR1 (SARS-CoV-2).

In turn, SLDQINVTFLDLEYEMKKLEEAIKKLEESYIDLKEL (modifications not checked) [L-form of EK1] gave a Kd of 23 nM.
